Bridges are numbered along the chain shown (N, C = ends). Where no end group is shown, it is not given here. [ ]: non-standard residue; d: D form. The star is where a group is joined. Acetyl(2-(4-imidazolyl)) = O=C(Cc1c[nH]cn1)*; Aib = CC(C)(N)C(=O)O
T1: human GIP receptor (human, UniProt P48546 22-466)
T1 sequence (looked up): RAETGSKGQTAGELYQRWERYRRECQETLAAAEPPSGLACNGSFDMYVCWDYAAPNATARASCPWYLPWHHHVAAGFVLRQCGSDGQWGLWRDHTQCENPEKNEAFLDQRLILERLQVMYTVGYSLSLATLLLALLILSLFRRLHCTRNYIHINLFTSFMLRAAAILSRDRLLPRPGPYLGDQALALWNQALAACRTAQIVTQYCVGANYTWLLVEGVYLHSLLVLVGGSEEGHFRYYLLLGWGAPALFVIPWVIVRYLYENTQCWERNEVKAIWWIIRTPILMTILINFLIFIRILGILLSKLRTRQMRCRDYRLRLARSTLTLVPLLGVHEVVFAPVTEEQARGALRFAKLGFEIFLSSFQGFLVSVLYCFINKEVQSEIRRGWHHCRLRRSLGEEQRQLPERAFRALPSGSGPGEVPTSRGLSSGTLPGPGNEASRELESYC


Tests used:
Test in all cases: cell-based or functional assay
[1] = biological target: human GLP-1 receptor (human, UniProt P43220 24-463)
[2] = biological target: human GCG receptor (human, UniProt P47871 26-477)
[3] = biological target: T1, human GIP receptor

Chain of human GCG receptor (P47871 26-477): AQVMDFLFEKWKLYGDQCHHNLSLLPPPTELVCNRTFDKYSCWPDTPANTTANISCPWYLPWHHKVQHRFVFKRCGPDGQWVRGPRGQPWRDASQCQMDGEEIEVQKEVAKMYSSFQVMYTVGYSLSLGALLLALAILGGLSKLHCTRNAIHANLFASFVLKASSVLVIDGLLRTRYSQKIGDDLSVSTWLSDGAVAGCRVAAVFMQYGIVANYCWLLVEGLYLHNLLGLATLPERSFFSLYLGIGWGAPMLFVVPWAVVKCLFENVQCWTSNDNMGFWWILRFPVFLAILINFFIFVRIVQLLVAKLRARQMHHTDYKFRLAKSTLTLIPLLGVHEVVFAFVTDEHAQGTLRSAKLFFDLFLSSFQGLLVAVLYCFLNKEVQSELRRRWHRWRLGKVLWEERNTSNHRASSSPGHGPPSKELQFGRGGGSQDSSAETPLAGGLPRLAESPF

Binder | In vitro activity compared with native peptide (%) vs. GLP-1 [1] | In vitro activity compared with native peptide (%) vs. Glucagon [2] | In vitro activity compared with native peptide (%) vs. GIP [3]
Y[Aib]QGTFTSDYSKYLDECAAKDFVQWLLDHHPSSGQPPPS (also: ring formation, positions not given here) [Triple agonist of SEQ ID NO: 67] | 28.5% | 46.2% | 39.8%
Y[Aib]QGTFTSDYSKYLDECRAKDFVQWLLDHHPSSGQPPPS (bridge 16-20) [Triple agonist of SEQ ID NO: 66] | 15.8% | 172% | 17.2%
{Acetyl(2-(4-imidazolyl))}-[Aib]QGTFTSDYSIAMDEKHCKDFVNWLLNTK (bridge 15-19) [Triple agonist of SEQ ID NO: 60] | 106% | < 0.1% | 8.2%
H[Aib]QGTFTSDYSKYLDEKRQKEFVQWLLNTC (bridge 16-20) [Triple agonist of SEQ ID NO: 51] | 14.4% | 2% | 0.1%
Y[Aib]QGTFTSDYSKYLDERACKDFVQWLLDHHPSSGQPPPS (bridge 16-20) [Triple agonist of SEQ ID NO: 71] | 90.1% | 12.7% | 94.7%
H[Aib]QGTFTSDYSKYLDEKRAKEFVQWLLDHHPSSGQPPPSC (bridge 16-20) [Triple agonist of SEQ ID NO: 50] | 67.4% | 50.5% | 2.7%
H[Aib]EGTFTSDYSIAMDEIHQKDFVNWLLAQC (bridge 16-20) [Triple agonist of SEQ ID NO: 53] | 161% | 8.4% | 1.3%
H[Aib]QGTFTSDVSSYLDGQAAKEFVAWLLKGC [Triple agonist of SEQ ID NO: 6] | 17% | < 0.1% | < 0.1%
Y[Aib]QGTFTSDYSKCLDEKRAKDFVQWLLDHHPSSGQPPPS (bridge 16-20) [Triple agonist of SEQ ID NO: 70] | 15.1% | 71.3% | 64.4%
{Acetyl(2-(4-imidazolyl))}-[Aib]QGTFTSDKSKYLDERAAQDFVQWLLDGGPSSGAPPPS [Triple agonist of SEQ ID NO: 62] | 5.2% | < 0.1% | < 0.1%
H[Aib]QGTFTSDYSIAMDEIHQKDFVNWLLAQC (bridge 16-20) [Triple agonist of SEQ ID NO: 55] | 27.1% | 0.7% | 2.4%
HGQGTFTSDCSKYMDGQAAQDFVAWLLAGGPSSGAPPPS [Triple agonist of SEQ ID NO: 45] | 6.6% | < 0.1% | < 0.1%
HGQGTFTSDCSKYLDGQRAQEFVAWLLAGGPSSGAPPPS [Triple agonist of SEQ ID NO: 47] | 2.4% | < 0.1% | < 0.1%
HGQGTFTSDCSKYLDEQHAQEFVAWLLAGGPSSGAPPPS [Triple agonist of SEQ ID NO: 46] | 1.4% | < 0.1% | < 0.1%
HGQGTFTSDCSKYLDGQRAQDFVNWLLAGGPSSGAPPPS [Triple agonist of SEQ ID NO: 48] | 1.5% | < 0.1% | < 0.1%
Y[Aib]QGTFTSDYSKCLDEKAAKEFVQWLLDHHPSSGQPPPS (bridge 16-20) [Triple agonist of SEQ ID NO: 68] | 27.9% | 8.8% | 107%
H[Aib]QGTFTSDYSKYLDEKRQKEFVQWLLNTKC (bridge 16-20) [Triple agonist of SEQ ID NO: 58] | 39.1% | 2.6% | 0.2%
H[Aib]QGTFTSDYSKYLDEKRQKEFVQWLLDTC (bridge 16-20) [Triple agonist of SEQ ID NO: 52] | 44.1% | 7.5% | 0.3%
H[Aib]QGTFTSDYSKCLDEKRAKEFVQWLLDHHPSSGQPPPS (bridge 16-20) [Triple agonist of SEQ ID NO: 65] | 95.4% | 25.2% | 11.6%
Y[Aib]QGTFTSDYSKCLDERAAKEFVQWLLDHHPSSGQPPPS (bridge 16-20) [Triple agonist of SEQ ID NO: 69] | 24.3% | 9.6% | 62.8%
{Acetyl(2-(4-imidazolyl))}-[Aib]QGTFTSDYSIAMDEIACKDFVNWLLNTK (bridge 15-19) [Triple agonist of SEQ ID NO: 61] | 59.8% | < 0.1% | 2.8%
Y[Aib]QGTFTSDYSKYLDECAAKEFVQWLLDHHPSSGQPPPS (bridge 16-20) [Triple agonist of SEQ ID NO: 64] | 64.6% | 60.1% | 92.9%
H[Aib]QGTFTSDVSKYLDGQAAKEFVAWLLKGC [Triple agonist of SEQ ID NO: 7] | 13.7% | < 0.1% | < 0.1%
{Acetyl(2-(4-imidazolyl))}-[Aib]QGTFTSDYSICMDEIHQKDFVNWLLNTK (bridge 15-19) [Triple agonist of SEQ ID NO: 49] | 29.8% | < 0.1% | 3.3%
H[Aib]QGTFTSDYSKYLDEKRQKEFVNWLLAQC (also: ring formation, positions not given here) [Triple agonist of SEQ ID NO: 56] | 57.9% | 4.9% | 0.8%
H[Aib]QGTFTSDYSIAMDEIHQKDFVNWLLNTC (bridge 16-20) [Triple agonist of SEQ ID NO: 57] | 11.7% | < 0.1% | 0.3%
{Acetyl(2-(4-imidazolyl))}-[Aib]QGTFTSDYSICMDEKHQKDFVNWLLNTK (bridge 15-19) [Triple agonist of SEQ ID NO: 59] | 40.3% | < 0.1% | 4%
{Acetyl(2-(4-imidazolyl))}-[Aib]QGTFTSDCSKYLDERAAQDFVQWLLDGGPSSGAPPPS [Triple agonist of SEQ ID NO: 63] | 15.3% | < 0.1% | < 0.1%
H[Aib]EGTFTSDYSIAMDEIHQKDFVDWLLAEC (bridge 16-20) [Triple agonist of SEQ ID NO: 54] | 30.6% | 1.4% | 0.1%

Source: US20240024426A1, “HYPOTENSIVE PHARMACEUTICAL COMPOSITION COMPRISING TRIPLE ACTIVATOR HAVING ACTIVITY FOR ALL OF GLUCAGON, GLP-1, AND GIP RECEPTORS” (HANMI PHARM. CO., LTD., priority 2020, published 2024)
